# Experimental data from patent CN116023497A (WEST CHINA HOSPITAL SICHUAN UNIV, dated 2023).
# T1: DDR2胞外段 (UniProt Q16832 22-399)
# T1 construct: range 22-399; also called DDR2 ECD
# T1 sequence (looked up): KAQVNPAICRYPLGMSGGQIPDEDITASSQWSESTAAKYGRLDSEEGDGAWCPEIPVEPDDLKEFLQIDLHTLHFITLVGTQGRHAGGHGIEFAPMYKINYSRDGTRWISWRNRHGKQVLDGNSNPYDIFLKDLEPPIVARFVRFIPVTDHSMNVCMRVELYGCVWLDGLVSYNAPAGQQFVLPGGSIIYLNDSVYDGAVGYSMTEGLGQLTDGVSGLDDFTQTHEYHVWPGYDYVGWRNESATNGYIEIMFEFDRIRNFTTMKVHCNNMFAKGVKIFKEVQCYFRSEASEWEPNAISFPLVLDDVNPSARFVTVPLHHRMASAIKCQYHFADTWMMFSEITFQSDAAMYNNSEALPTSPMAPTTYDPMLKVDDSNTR
# T2: DDR1胞外段(DDR1 ECD), His标签 (human)
# T2 chain: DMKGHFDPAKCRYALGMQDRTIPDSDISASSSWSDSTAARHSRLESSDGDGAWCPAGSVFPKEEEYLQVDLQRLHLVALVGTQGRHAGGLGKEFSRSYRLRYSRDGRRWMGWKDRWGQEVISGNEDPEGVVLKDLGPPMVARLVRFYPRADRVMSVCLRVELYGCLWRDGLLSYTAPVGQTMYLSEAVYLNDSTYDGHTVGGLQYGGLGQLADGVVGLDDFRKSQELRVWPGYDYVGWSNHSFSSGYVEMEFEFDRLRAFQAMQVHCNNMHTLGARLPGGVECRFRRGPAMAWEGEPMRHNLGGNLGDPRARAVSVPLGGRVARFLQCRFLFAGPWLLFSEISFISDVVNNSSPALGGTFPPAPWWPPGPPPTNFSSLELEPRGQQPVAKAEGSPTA
# B1: Tytug抗体 (antibody, IgG1, V domains shown)
# VH: QVQLQQPGAELVRPGSSVRLSCKASGYSFTSYWMNWVKQRPGQGLEWIGMIHPSDSKTRLDQKFKDKATLTVDKSSSTAYMQLSSPTSEDSAVYYCAREGTYYYAMDFWGQGTSVTVSS
# VL: DVLMTQTPLSLPVSLGDQASISCRSSQTIVHSNGNTYLEWYLQKPGQSPKLLIYKVSNRFSGVPDRFSGSGSGTDFTLKISRVEAEDLGVYYCFQGSHDPYTFGGGTKLEIK
# notes: Mouse hybridoma monoclonal antibody; also called T4-E11-F10; T4-E11-F10(Tytug)
# Tests used:
# DDR2胞外段 = biological target: T1, DDR2胞外段; assay: ELISA, coated DDR2 ECD, dilution series of Tytug
# DDR1胞外段(DDR1 ECD), His标签 [1] = biological target: T2, DDR1胞外段(DDR1 ECD), His标签; assay: SPR (Biacore), 1:1 model; His-tagged DDR1 ECD on NTA chip, Tytug as analyte
# DDR1胞外段(DDR1 ECD), His标签 [2] = biological target: T2, DDR1胞外段(DDR1 ECD), His标签; assay: SPR (Biacore), 1:1 model; His-tagged DDR1 ECD on NTA chip, Tytug as analyte; exponent printed without minus sign, kd/ka gives 2.26e-10
binder,measurement,setting,value
B1,binding result,DDR2胞外段,no binding
same,koff,"DDR1胞外段(DDR1 ECD), His标签 [1]",4.66e-05 s⁻¹
same,kon,"DDR1胞外段(DDR1 ECD), His标签 [1]",207000 M⁻¹ s⁻¹
same,Kd,"DDR1胞外段(DDR1 ECD), His标签 [2]",0.226 nM
